Test results reported in patent US20260216362A1, “ANTI-BDCA2 ANTIBODY-DRUG CONJUGATE AND USE THEREOF” (DUALITY BIOLOGICS (SHANGHAI) CO., LTD., priority 2022, published 2026).
Residue numbers refer to the chain shown, from its start.

T1: human BDCA2 expressed on CHOK1 cells (human, UniProt Q8WTT0 1-213)
T1 construct: whole, on cells; also called CHOK1-hBDCA2; CHOK1-humanBDCA2
T1 sequence (looked up): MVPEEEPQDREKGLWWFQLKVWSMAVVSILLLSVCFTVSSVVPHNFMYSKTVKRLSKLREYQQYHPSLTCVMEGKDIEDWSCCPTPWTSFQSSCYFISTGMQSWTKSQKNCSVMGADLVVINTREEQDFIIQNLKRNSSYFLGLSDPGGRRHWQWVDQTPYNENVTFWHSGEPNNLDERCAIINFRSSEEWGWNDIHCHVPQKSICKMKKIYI

T2: Human BDCA2 Fc recombinant protein (human, UniProt Q8WTT0 45-213)
T2 construct: also called HumanBDCA2 Fc protein; not shown: The N-terminal human IgG1 Fc fragment and the linker
T2 sequence: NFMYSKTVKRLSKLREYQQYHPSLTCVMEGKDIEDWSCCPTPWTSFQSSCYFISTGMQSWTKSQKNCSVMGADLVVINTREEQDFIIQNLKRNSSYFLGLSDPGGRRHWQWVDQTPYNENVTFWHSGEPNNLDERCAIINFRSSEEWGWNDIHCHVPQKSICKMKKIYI

T3: cynomolgus monkey BDCA2 expressed on 293F cells (cynomolgus monkey, UniProt A0A2K5UWP4 1-212)
T3 construct: whole, on cells
T3 sequence: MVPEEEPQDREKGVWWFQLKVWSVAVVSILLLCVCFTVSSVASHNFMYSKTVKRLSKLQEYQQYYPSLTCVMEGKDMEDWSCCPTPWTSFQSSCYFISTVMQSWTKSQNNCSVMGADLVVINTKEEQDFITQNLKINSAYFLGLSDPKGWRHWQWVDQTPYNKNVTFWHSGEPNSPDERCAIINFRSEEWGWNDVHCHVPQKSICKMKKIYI

B1: mAb001 (antibody)
chain 1: QIQLVQSGPELKKPGETVKISCKASGYTFTDFSMHWVKQAPGKGLKWMGWINTETGEPTYADDFKGRFAFSLETSASTAFLQINNLKNDDTTTYFCSRGGDGHPYWYFAVWGAGTTVTVSS
chain 2: DIVLTQSPASLAVSLGQRATISCRASQSVSTSSYSYMHWYQQKPGQPPKLLIKYASILESGVPARFSGSGSGTDFTLNIHPVEEEDTATYYCQHSWEIPFTFGSGTKLEIK
B2: mAb002 (antibody)
chain 1: QIQLVQSGPELKKPGETVKISCRASGYSFTDYSMHWVKQAPGKGLKWVGWINTETGEPTYADDFKGRFALSLETSATSAYLQINNLKNEDTATYFCARGGDGFPYWYFNVWGAGTTVTVSS
chain 2: B1 chain 2 with A9T, A19T, T20N, Y34N, M37I, I57N, E59D, A88S
B3: mAb005 (antibody)
chain 1: QVQLKQSGPGLVQPSQSLSITCTVSGFSLTNYGVHWVRQSPGKGLEWLGVIWSGESTDYDAAFISRLSISKDNSKSQVFFKMNSLQADDSAIYYCARRRSHYYGYVMDYWGQGTSVTVSS
chain 2: DIVLTQSPASLAVSLGQRATISCKASQSIDYDGIGYLNWYQHKPGQPPKLLIYAASNLESGIPARFSGSGSGTDFTLNIHPVEEEDAATYYCQQSNEDPPTFGSGTKLEIK
B4: mAb016 (antibody)
chain 1: B3 chain 1 with N31S, K81R
chain 2: B3 chain 2 with I29V, I34V
B5: BIIB059 (antibody, human IgG1, kappa, V domains shown)
VH: DVQLVESGGGLVKPGGSLRLSCAASGFTFSTYTMSWVRQAPGKGLEWVATISPGDSFGYYYPDSVQGRFTISRDNAKNSLYLQMNSLRAEDTAVYYCTRDIYYNYGAWFAYWGQGTLVTVSS
VL: DIQLTQSPSSLSASVGDRVTITCKASQSVDYDGDSYMNWYQQKPGKAPKLLIYAASTLESGVPSRFSGSGSGTDFTLTISSLQPEDFATYYCQQANEDPRTFGQGTKVEIKR
notes: also called positive control antibody BIIB059
B6: Hu033-03 (antibody, human IgG1, kappa, V domains shown)
VH: EVQLVESGGGLVKPGGSLRLSCAASGFTFSSYGMSWVRQAPGKGLEWVSTISSGDSYTYYPDSVKGRFTISRDNAKNSLYLQMNSLRAEDTAVYYCARQIYYDYAYYFDFWGQGTTVTVSS
VL: DIVLTQSPASLAVSPGQRATITCRASESVSFRTSHLMHWYQQKPGQPPKLLIYGASNLESGVPARFSGSGSETDFTLTINPVEAEDTANYFCQQSIEDPPTFGGGTKVEIKR
notes: Humanized IgG1; also called Hu033-03(BM3)
B7: Hu033-03-ADC (antibody, human IgG1, kappa, V domains shown)
VH: B6 VH
VL: B6 VL
modifications: Compound 9 (glucocorticoid linker-payload) coupled to cysteine sulfhydryls after TCEP reduction, positions not given; average 4.01 per antibody by HIC
notes: also called Hu033-03 antibody-drug conjugate; BDCA2-ADC
B8: mAb019 (antibody)
chain 1: EVKLVESGGDLVQPGGSLKLSCAASGFTFSDYYMYWVRQTPEKRLEWVAYISYSGDSTYYPDTVKGRFTISRDNAKNTLFLQMSRLKSEDTAMYYCARHSPSFPYYFDYWGQGTALTVSS
chain 2: EIVLTQSPAITAASLGQKVTITCSASSSVSYMHWYQQKSGTSPKPWIYEISKLASGVPARFSGSGSGTSYSLTISSMEAEDAAIYYCQLWNYPLITFGGGTNLEIK
B9: mAb020 (antibody)
chain 1: DVQLQESGPGLVKPSQSLSLTCSVTGYSIASGYYWNWIRQFPGNKLEWMGYISFDGTYNYNPSLKDRFSITRDTSKNQFFLKLNSVTTEDTATYYCARGVDYPNAIDWWGQGTSVTVSS
chain 2: DIVLTQSPASLAVSLGQRATISCRASESVSMHVTHLIHWYQQKPGQPPKLLIYVASNLESGVPARFSGSGSETDFTLNIHPVEEEDAATYFCQQSFEDPWTFGGGTKLEIK
B10: mAb021 (antibody)
chain 1: DVQLQESGPGLVKPSQSLSLTCSVTGYSITSAYYWNWIRQFPGNKLECMGYITYDGNNYYSPSLKNRISITRDTSKNQFFLNLNSVTTEDTATYFCARGGDYDDGGFAFWGQGTLVTVSA
chain 2: DIQMTQSPASLSASVGETVTITCRASGNIHNYLAWYHQKQGKSPQLLVYNAKSLVDGVPSRFSGSGSGTQYSLRINSLQPEDFGSYYCQHFWIVPYTFGGGTKLEII
B11: mAb022 (antibody)
chain 1: B9 chain 1 with A30T, N104K, I106M
chain 2: B9 chain 2
B12: mAb024 (antibody)
chain 1: EVQLVESGGDLVKPGGSLKLSCAASGFTFSSFGMSWVRQTPDKRLDWVATISSGDSYTYYPDSVKGRFSISRDNAKNTLYLQMSSLKSEDTAVYYCARQIYYDYAYYFDYWGQGTTLTVSS
chain 2: B9 chain 2 with M31F, H32R, V33S, T34S, I37M, Q41R, V54A, T89A, F96I, W100P
B13: mAb027 (antibody)
chain 1: B10 chain 1 with I38V, K45Q, N57S, Y59N, S61N, N82K, F95Y, A97V, F109Y
chain 2: B10 chain 2 with H37Q, S53T, Q70E, R74K, S85I, Y87F, V94I, I107R
B14: mAb030 (antibody)
chain 1: B10 chain 1 with T53S, N57S, S61N, N82S, A97V, F109Y
chain 2: B10 chain 2 with H37Q, S53T, V55A, G68E, R74K, S85N, Y87F, V94I, I107K

Assays:
[1] = biological target: cynomolgus monkey BDCA2 expressed on 293F cells (cynomolgus monkey); assay: FACS on 293F-cynoBDCA2 cells, MFI vs concentration; EC50 from the drawn table (fit of a flat control curve)
[2] = biological target: T1, human BDCA2 expressed on CHOK1 cells; assay: FACS on CHOK1-hBDCA2 cells, MFI vs concentration; EC50 from the drawn table (fit of a flat control curve)
[3] = biological target: T2, Human BDCA2 Fc recombinant protein; assay: ELISA, coated humanBDCA2 Fc
[4] = biological target: T1, human BDCA2 expressed on CHOK1 cells; assay: FACS on CHOK1-hBDCA2 cells
Experimental: (§1) The cells were collected and resuspended to 2×10\hat{ }6 cells/mL in an FACS buffer (PBS+2% FBS). The resuspended cells were added to a 3799 cell plate at 100 μL/well and centrifuged at 300 g, and the supernatant was discarded. […] The cells were resuspended and incubated at 4° C. for 1 h. The incubated cells were centrifuged at 300 g for 5 min and washed twice with the FACS buffer. 100 μL of Goat anti-Human IgG (H+L) Cross-Adsorbed Secondary Antibody, Alexa Fluor 488 (Sigma, A11013; 1:1000) secondary antibody was added. The cells were incubated at 4° C. for 1 h, washed twice with the FACS buffer, and resuspended in PBS. The fluorescence signals of the antibodies for binding to the cell surface were analyzed using an FACS (BD FACS Canto™ II) instrument, curves were fitted using GraphPad Prism6, and EC50 values of the antibodies or antibody-drug conjugates for binding to the BDCA2 antigen were calculated.

[5] = biological target: T3, cynomolgus monkey BDCA2 expressed on …; assay: FACS on 293F-cynoBDCA2 cells
Experimental: as §1

| Molecule | EC50 [3] [nM] | other results |
| --- | --- | --- |
| hIgG1 (antibody) |  | EC50 [1]: 584 nM; EC50 [2]: 160 µM |
| B1 | < 0.3 |  |
| B2 | < 0.3 |  |
| B3 | < 0.3 |  |
| B4 | < 0.3 |  |
| B5 |  | EC50 [4]: 3.29 nM |
| B6 |  | EC50 [4]: 1.23 nM; EC50 [5]: 1.91 nM |
| B7 |  | EC50 [4]: 1.6 nM; EC50 [5]: 2.36 nM |
| B8 | < 0.3 |  |
| B9 | < 0.3 |  |
| B10 | < 0.3 |  |
| B11 | < 0.3 |  |
| B12 | < 0.3 |  |
| B13 | < 0.3 |  |
| B14 | < 0.3 |  |
